Reference: patent US20220064329A1 (Novo Nordisk, published 2022)
Values belong to the binder of their own block, whether it stands above or below them.

Target: T1, recombinant human activated Factor VII (FVIIa) (human, UniProt P08709 61-212; P08709 213-466, ten glutamate residues of the Gla domain may be gamma-carboxylated)
T1 construct: chains tethered by a disulfide bond; also called Factor VIIa; rFVIIa
T1 sequence 1: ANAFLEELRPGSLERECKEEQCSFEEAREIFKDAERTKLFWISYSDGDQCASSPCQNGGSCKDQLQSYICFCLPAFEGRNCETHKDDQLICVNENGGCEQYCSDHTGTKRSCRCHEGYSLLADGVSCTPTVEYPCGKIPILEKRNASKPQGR
T1 sequence 2: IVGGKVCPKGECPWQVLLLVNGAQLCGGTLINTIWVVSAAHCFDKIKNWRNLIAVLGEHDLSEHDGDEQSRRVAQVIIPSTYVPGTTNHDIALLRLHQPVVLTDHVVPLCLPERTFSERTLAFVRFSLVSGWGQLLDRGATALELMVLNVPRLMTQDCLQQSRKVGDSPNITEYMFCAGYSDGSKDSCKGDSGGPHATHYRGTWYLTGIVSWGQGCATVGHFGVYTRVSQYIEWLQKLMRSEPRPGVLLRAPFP
Test: BLI (Fortebio)

Kd: 3.1 nM
B3: VH SEQ ID NO 634 / VL SEQ ID NO 366 (antibody, IgG4, V domains shown)
VH: QVQLQESGPGLVKPSQTLSLTCTVSGYSISSDSAWSWIRQPPGKGLEWIGYIQYSGSTNYNPSLKSRVTISRDTSKNQFSLKLSSVTAADTAVYYCARSVNYYGNSFAVGYWGQGTLVTVSS
VL: EIVLTQSPATLSLSPGERATLSCRASQGLSDYLAWYQQKPGEAPRLLIKYASQPATGIPARFSGSGSGTDFTLTISSLEPEDFAVYYCQNGHSFPLTFGQGTKLEIK
notes: humanized 11F2; IgG4 S228P/kappa

Kd: 0.82 nM
B4: VH SEQ ID NO 634 / VL SEQ ID NO 358 (antibody, IgG4, V domains shown)
VH: QVQLQESGPGLVKPSQTLSLTCTVSGYSISSDSAWSWIRQPPGKGLEWIGYIQYSGSTNYNPSLKSRVTISRDTSKNQFSLKLSSVTAADTAVYYCARSVNYYGNSFAVGYWGQGTLVTVSS
VL: EIVLTQSPATLSLSPGERATLSCRASQGISDYLHWYQQKPGQAPRLLIKYTSQPATGIPARFSGSGSGTDFTLTISSLEPEDFAVYYCQNGHSFPLTFGQGTKLEIK
notes: as for B3

Kd: 1 nM
B5: VH SEQ ID NO 634 / VL SEQ ID NO 342 (antibody, IgG4, V domains shown)
VH: QVQLQESGPGLVKPSQTLSLTCTVSGYSISSDSAWSWIRQPPGKGLEWIGYIQYSGSTNYNPSLKSRVTISRDTSKNQFSLKLSSVTAADTAVYYCARSVNYYGNSFAVGYWGQGTLVTVSS
VL: EIVLTQSPATLSLSPGERATLSCRASQGISDYLHWYQQKPGQAPRLLIKYTSQPATGIPARFSGSGSGRDFTLTISSLEPEDFAVYYCQNGHSFPLTFGAGTKLELK
notes: as for B3

Kd: 1.2 nM
B6: VH SEQ ID NO 634 / VL SEQ ID NO 350 (antibody, IgG4, V domains shown)
VH: QVQLQESGPGLVKPSQTLSLTCTVSGYSISSDSAWSWIRQPPGKGLEWIGYIQYSGSTNYNPSLKSRVTISRDTSKNQFSLKLSSVTAADTAVYYCARSVNYYGNSFAVGYWGQGTLVTVSS
VL: EIVLTQSPATLSLSPGERATLSCRASQGISDYLHWYQQKPGQAPRLLIKYTSQPATGIPARFSGSGSGTDFTLTISSLEPEDFAVYYCQNGHSFPLTFGAGTKLELK
notes: as for B3

Kd: 4.5 nM
B8: VH SEQ ID NO 634 / VL SEQ ID NO 374 (antibody, IgG4, V domains shown)
VH: QVQLQESGPGLVKPSQTLSLTCTVSGYSISSDSAWSWIRQPPGKGLEWIGYIQYSGSTNYNPSLKSRVTISRDTSKNQFSLKLSSVTAADTAVYYCARSVNYYGNSFAVGYWGQGTLVTVSS
VL: EIVLTQSPATLSLSPGERATLSCRASQGLSDYLAWYQQKPGQAPRLLIKYTSQPATGIPARFSGSGSGTDFTLTISSLEPEDFAVYYCQNGHSFPLTFGQGTKLEIK
notes: as for B3

Kd: 1.2 nM
B11: VH SEQ ID NO 634 / VL SEQ ID NO 382 (antibody, IgG4, V domains shown)
VH: QVQLQESGPGLVKPSQTLSLTCTVSGYSISSDSAWSWIRQPPGKGLEWIGYIQYSGSTNYNPSLKSRVTISRDTSKNQFSLKLSSVTAADTAVYYCARSVNYYGNSFAVGYWGQGTLVTVSS
VL: EIVLTQSPATLSLSPGERATLSCRASQGLSDYLHWYQQKPGEAPRLLIKYASQPATGIPARFSGSGSGTDFTLTISSLEPEDFAVYYCQNGHSFPLTFGQGTKLEIK
notes: as for B3

Kd: 1 nM
B14: VH SEQ ID NO 634 / VL SEQ ID NO 334 (antibody, IgG4, V domains shown)
VH: QVQLQESGPGLVKPSQTLSLTCTVSGYSISSDSAWSWIRQPPGKGLEWIGYIQYSGSTNYNPSLKSRVTISRDTSKNQFSLKLSSVTAADTAVYYCARSVNYYGNSFAVGYWGQGTLVTVSS
VL: EIVLTQSPATLSLSPGERATLSCRASQGISDYLHWYQQKPGQAPRLLIKYASQPATGIPARFSGSGSGTDFTLTISSLEPEDFAVYYCQNGHSFPLTFGQGTKLEIK
notes: as for B3

More lines, now with the values behind:

B1: VH SEQ ID NO 626 / VL SEQ ID NO 422 (antibody, IgG4, V domains shown)
VH: QVQLQESGPGLVKPSQTLSLTCTVSGYSISSDSAWSWIRQPPGKGLEWIGYIQYSGSTNYNPSLKSRVTISRDTSKNQFSLKLSSVTAADTAVYYCARSVNYYGNSFAVGPWGQGTLVTVSS
VL: EIVLTQSPATLSLSPGERATLSCRASQGVSDYLAWYQQKPGQAPRLLIKYASQPATGIPARFSGSGSGTDFTLTISSLEPEDFAVYYCQQGHSFPLTFGQGTKLEIK
notes: as for B3
Kd: 2400 nM

B2: VH SEQ ID NO 626 / VL SEQ ID NO 430 (antibody, IgG4, V domains shown)
VH: QVQLQESGPGLVKPSQTLSLTCTVSGYSISSDSAWSWIRQPPGKGLEWIGYIQYSGSTNYNPSLKSRVTISRDTSKNQFSLKLSSVTAADTAVYYCARSVNYYGNSFAVGPWGQGTLVTVSS
VL: EIVLTQSPATLSLSPGERATLSCRASQGVSDYLAWYQQKPGQAPRLLIKYASQPATGIPARFSGSGSGTDFTLTISSLEPEDFGVYYCQNGHSFPLTFGQGTKLEIK
notes: as for B3
Kd: 53 nM

B7: VH SEQ ID NO 634 / VL SEQ ID NO 318 (antibody, IgG4, V domains shown)
VH: QVQLQESGPGLVKPSQTLSLTCTVSGYSISSDSAWSWIRQPPGKGLEWIGYIQYSGSTNYNPSLKSRVTISRDTSKNQFSLKLSSVTAADTAVYYCARSVNYYGNSFAVGYWGQGTLVTVSS
VL: EIVLTQSPATLSLSPGERATLSCRASQGISDYLHWYQQKPGEAPRLLIKYTSQPATGIPARFSGSGSGTDFTLTISSLEPEDFAVYYCQNGHSFPLTFGQGTKLEIK
notes: as for B3
Kd: 0.86 nM

B9: VH SEQ ID NO 634 / VL SEQ ID NO 326 (antibody, IgG4, V domains shown)
VH: QVQLQESGPGLVKPSQTLSLTCTVSGYSISSDSAWSWIRQPPGKGLEWIGYIQYSGSTNYNPSLKSRVTISRDTSKNQFSLKLSSVTAADTAVYYCARSVNYYGNSFAVGYWGQGTLVTVSS
VL: EIVLTQSPATLSLSPGERATLSCRASQGISDYLHWYQQKPGEAPRLLIKYTSQPATGIPARFSGSGSGTDFTLTISSLEPEDFGVYYCQNGHSFPLTFGAGTKLELK
notes: as for B3
Kd: 0.9 nM

B10: VH SEQ ID NO 626 / VL SEQ ID NO 454 (antibody, IgG4, V domains shown)
VH: QVQLQESGPGLVKPSQTLSLTCTVSGYSISSDSAWSWIRQPPGKGLEWIGYIQYSGSTNYNPSLKSRVTISRDTSKNQFSLKLSSVTAADTAVYYCARSVNYYGNSFAVGPWGQGTLVTVSS
VL: EIVLTQSPATLSLSPGERATLSCRASQGVSDYLHWYQQKPGEAPRLLIKYASQPATGIPARFSGSGSGTDFTLTISSLEPEDFAVYYCQNGHSFPLTFGQGTKLEIK
notes: as for B3
Kd: 1.4 nM

B12: VH SEQ ID NO 626 / VL SEQ ID NO 494 (antibody, IgG4, V domains shown)
VH: QVQLQESGPGLVKPSQTLSLTCTVSGYSISSDSAWSWIRQPPGKGLEWIGYIQYSGSTNYNPSLKSRVTISRDTSKNQFSLKLSSVTAADTAVYYCARSVNYYGNSFAVGPWGQGTLVTVSS
VL: EIVLTQSPATLSLSPGERATLSCRASQGVSDYLHWYQQKPGQAPRLLIKYASQPATGIPARFSGSGSGTDFTLTISSLEPEDVAVYYCQNGHSFPLTFGQGTKLEIK
notes: as for B3
Kd: 1.8 nM

B13: VH SEQ ID NO 626 / VL SEQ ID NO 478 (antibody, IgG4, V domains shown)
VH: QVQLQESGPGLVKPSQTLSLTCTVSGYSISSDSAWSWIRQPPGKGLEWIGYIQYSGSTNYNPSLKSRVTISRDTSKNQFSLKLSSVTAADTAVYYCARSVNYYGNSFAVGPWGQGTLVTVSS
VL: EIVLTQSPATLSLSPGERATLSCRASQGVSDYLHWYQQKPGQAPRLLIKYASQPATGIPARFSGSGSGTDFTLTISSLEPEDFAVYYCQQGHSFPLTFGQGTKLEIK
notes: as for B3
Kd: 2.5 nM

B15: VH SEQ ID NO 626 / VL SEQ ID NO 502 (antibody, IgG4, V domains shown)
VH: QVQLQESGPGLVKPSQTLSLTCTVSGYSISSDSAWSWIRQPPGKGLEWIGYIQYSGSTNYNPSLKSRVTISRDTSKNQFSLKLSSVTAADTAVYYCARSVNYYGNSFAVGPWGQGTLVTVSS
VL: EIVLTQSPATLSLSPGERATLSCRASQGVSDYLHWYQQKPGQAPRLLIKYTSQPATGIPARFSGSGSGTDFTLTISSLEPEDFAVYYCQNGHSFPLTFGQGTKLEIK
notes: as for B3
Kd: 1.8 nM

B16: VH SEQ ID NO 626 / VL SEQ ID NO 446 (antibody, IgG4, V domains shown)
VH: QVQLQESGPGLVKPSQTLSLTCTVSGYSISSDSAWSWIRQPPGKGLEWIGYIQYSGSTNYNPSLKSRVTISRDTSKNQFSLKLSSVTAADTAVYYCARSVNYYGNSFAVGPWGQGTLVTVSS
VL: EIVLTQSPATLSLSPGERATLSCRASQGVSDYLAWYQQKPGQAPRLLIKYTSQPATGIPARFSGSGSGTDFTLTISSLEPEDFAVYYCQNGHSFPLTFGQGTKLEIK
notes: as for B3
Kd: 880 nM

B17: VH SEQ ID NO 626 / VL SEQ ID NO 462 (antibody, IgG4, V domains shown)
VH: QVQLQESGPGLVKPSQTLSLTCTVSGYSISSDSAWSWIRQPPGKGLEWIGYIQYSGSTNYNPSLKSRVTISRDTSKNQFSLKLSSVTAADTAVYYCARSVNYYGNSFAVGPWGQGTLVTVSS
VL: EIVLTQSPATLSLSPGERATLSCRASQGVSDYLHWYQQKPGQAPRLLIKYASQPATGIPARFSGSGSGTDFTLTISSLEPEDFAVYYCQNGHSFPLTFGAGTKLEIK
notes: as for B3
Kd: 1.4 nM

B18: VH SEQ ID NO 634 / VL SEQ ID NO 310 (antibody, IgG4, V domains shown)
VH: QVQLQESGPGLVKPSQTLSLTCTVSGYSISSDSAWSWIRQPPGKGLEWIGYIQYSGSTNYNPSLKSRVTISRDTSKNQFSLKLSSVTAADTAVYYCARSVNYYGNSFAVGYWGQGTLVTVSS
VL: EIVLTQSPATLSLSPGERATLSCRASQGISDYLAWYQQKPGQAPRLLIKYASQPATGIPARFSGSGSGTDFTLTISSLEPEDFAVYYCQNGHSFPLTFGQGTKLEIK
notes: as for B3
Kd: 2.1 nM

B19: VH SEQ ID NO 626 / VL SEQ ID NO 438 (antibody, IgG4, V domains shown)
VH: QVQLQESGPGLVKPSQTLSLTCTVSGYSISSDSAWSWIRQPPGKGLEWIGYIQYSGSTNYNPSLKSRVTISRDTSKNQFSLKLSSVTAADTAVYYCARSVNYYGNSFAVGPWGQGTLVTVSS
VL: EIVLTQSPATLSLSPGERATLSCRASQGVSDYLAWYQQKPGQAPRLLIKYASQPATGIPARFSGSGSGTDFTLTISSLEPEDVAVYYCQNGHSFPLTFGQGTKLEIK
notes: as for B3
Kd: 77 nM

B20: VH SEQ ID NO 626 / VL SEQ ID NO 486 (antibody, IgG4, V domains shown)
VH: QVQLQESGPGLVKPSQTLSLTCTVSGYSISSDSAWSWIRQPPGKGLEWIGYIQYSGSTNYNPSLKSRVTISRDTSKNQFSLKLSSVTAADTAVYYCARSVNYYGNSFAVGPWGQGTLVTVSS
VL: EIVLTQSPATLSLSPGERATLSCRASQGVSDYLHWYQQKPGQAPRLLIKYASQPATGIPARFSGSGSGTDFTLTISSLEPEDFGVYYCQNGHSFPLTFGQGTKLEIK
notes: as for B3
Kd: 1.6 nM
